Measurements taken from patent publication US20140294898A1 (published 2014).
Like-named read-outs stand apart in the source and are kept apart here.

Legend:
[1] = molecular target: T1, hPDL1(19-239)-TVMV-His (human, UniProt Q9NZQ7 19-239); experiment: HTRF competition, PD-1-Ig (20 nM) binding to human PD-L1-His (10 nM)
T1 construct: The construct name says 19-239, the running text says amino acids 18-239; Expressed in HEK293T cells; also called PD-L1-His; PD-L1-TVMV-His
Procedure: (§1) All binding studies were performed in an HTRF assay buffer consisting of dPBS supplemented with 0.1% (w/v) bovine serum albumin and 0.05% (v/v) Tween-20. […] PD-L1 fusion proteins from either human, cynomologous macaques, or mouse were used. HTRF detection was achieved using europium crypate-labeled anti-Ig monoclonal antibody (1 nM final) and allophycocyanin (APC) labeled anti-His monoclonal antibody (20 nM final). Antibodies were diluted in HTRF detection buffer and 5 μl was dispensed on top of binding reaction. The reaction was allowed to equilibrate for 30 minutes and signal (665 nm/620 nm ratio) was obtained using an EnVision fluorometer. […]
HTRF Experiments were performed essentially as outlined supra. Variant macrocyclic peptides were created as outlined herein.

[2] = molecular target: T1, hPDL1(19-239)-TVMV-His; experiment: as above; remark: listed apart in the source
Procedure: as §1
HTRF experiments were performed essentially as outlined supra. Variant macrocyclic peptides were created as outlined herein.

T1 sequence (Q9NZQ7 other isoform, or with tags, fused parts or gaps limits assumed): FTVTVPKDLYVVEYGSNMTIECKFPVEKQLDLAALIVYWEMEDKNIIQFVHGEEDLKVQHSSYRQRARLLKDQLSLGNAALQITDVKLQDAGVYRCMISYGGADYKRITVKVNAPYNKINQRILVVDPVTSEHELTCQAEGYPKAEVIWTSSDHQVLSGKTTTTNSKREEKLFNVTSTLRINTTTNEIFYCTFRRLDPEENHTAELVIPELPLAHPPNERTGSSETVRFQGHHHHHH

B1: Compound No. 69 (peptide)
peptide: FANPHLGWSWFXRCG
HELM: PEPTIDE1{[O=C(C[*:3])[*:2]].F.[meA].N.P.H.L.[Sar].W.S.W.F.[CCCC[C@@H](C(=O)[*:2])N(C)[*:1]].R.C.G.[am]}$PEPTIDE1,PEPTIDE1,1:R3-15:R3$$$V2.0
SMILES: CCCC[C@H]1C(=O)N[C@@H](CCCNC(=N)N)C(=O)N[C@H](C(=O)NCC(N)=O)CSCC(=O)N[C@@H](Cc2ccccc2)C(=O)N(C)[C@@H](C)C(=O)N[C@@H](CC(N)=O)C(=O)N2CCC[C@H]2C(=O)N[C@@H](Cc2c[nH]cn2)C(=O)N[C@@H](CC(C)C)C(=O)N(C)CC(=O)N[C@@H](Cc2c[nH]c3ccccc23)C(=O)N[C@@H](CO)C(=O)N[C@@H](Cc2c[nH]c3ccccc23)C(=O)N[C@@H](Cc2ccccc2)C(=O)N1C
notes: macrocyclic peptide cyclized via the ClAc moiety with the downstream cysteine
Work on B1 yielded an IC50 [1] of 77 nM.

B2: Compound No. 68 (peptide)
peptide: FANPHLGWSWSXRCG
HELM: PEPTIDE1{[O=C(C[*:3])[*:2]].F.[meA].N.P.H.L.[Sar].W.S.W.S.[CCCC[C@@H](C(=O)[*:2])N(C)[*:1]].R.C.G.[am]}$PEPTIDE1,PEPTIDE1,1:R3-15:R3$$$V2.0
SMILES: CCCC[C@H]1C(=O)N[C@@H](CCCNC(=N)N)C(=O)N[C@H](C(=O)NCC(N)=O)CSCC(=O)N[C@@H](Cc2ccccc2)C(=O)N(C)[C@@H](C)C(=O)N[C@@H](CC(N)=O)C(=O)N2CCC[C@H]2C(=O)N[C@@H](Cc2c[nH]cn2)C(=O)N[C@@H](CC(C)C)C(=O)N(C)CC(=O)N[C@@H](Cc2c[nH]c3ccccc23)C(=O)N[C@@H](CO)C(=O)N[C@@H](Cc2c[nH]c3ccccc23)C(=O)N[C@@H](CO)C(=O)N1C
notes: as for B1
B2 showed an IC50 [1] of 2060 nM.

B3: Compound No. 71 (peptide)
peptide: FFXGDVFYGWYLCG
HELM: PEPTIDE1{[O=C(C[*:3])[*:2]].F.[meF].[CCCC[C@@H](C(=O)[*:2])N(C)[*:1]].[Sar].D.V.[meF].Y.[Sar].W.Y.L.C.G.[am]}$PEPTIDE1,PEPTIDE1,1:R3-14:R3$$$V2.0
SMILES: CCCC[C@H]1C(=O)N(C)CC(=O)N[C@@H](CC(=O)O)C(=O)N[C@@H](C(C)C)C(=O)N(C)[C@@H](Cc2ccccc2)C(=O)N[C@@H](Cc2ccc(O)cc2)C(=O)N(C)CC(=O)N[C@@H](Cc2c[nH]c3ccccc23)C(=O)N[C@@H](Cc2ccc(O)cc2)C(=O)N[C@@H](CC(C)C)C(=O)N[C@H](C(=O)NCC(N)=O)CSCC(=O)N[C@@H](Cc2ccccc2)C(=O)N(C)[C@@H](Cc2ccccc2)C(=O)N1C
notes: macrocyclic peptide cyclized via the ClAc moiety with the downstream cysteine; parent of the Formula II series
In the case of B3, the IC50 [2] is reported as 7 nM.

B4: Compound No. 72 (peptide)
peptide: AFXGDVFYGWYLCG
HELM: PEPTIDE1{[O=C(C[*:3])[*:2]].A.[meF].[CCCC[C@@H](C(=O)[*:2])N(C)[*:1]].[Sar].D.V.[meF].Y.[Sar].W.Y.L.C.G.[am]}$PEPTIDE1,PEPTIDE1,1:R3-14:R3$$$V2.0
SMILES: CCCC[C@H]1C(=O)N(C)CC(=O)N[C@@H](CC(=O)O)C(=O)N[C@@H](C(C)C)C(=O)N(C)[C@@H](Cc2ccccc2)C(=O)N[C@@H](Cc2ccc(O)cc2)C(=O)N(C)CC(=O)N[C@@H](Cc2c[nH]c3ccccc23)C(=O)N[C@@H](Cc2ccc(O)cc2)C(=O)N[C@@H](CC(C)C)C(=O)N[C@H](C(=O)NCC(N)=O)CSCC(=O)N[C@@H](C)C(=O)N(C)[C@@H](Cc2ccccc2)C(=O)N1C
notes: macrocyclic peptide cyclized via the ClAc moiety with the downstream cysteine; variant of Compound No. 71 (Ala at 1)
B4 showed an IC50 [2] of 4230 nM.

B5: Compound No. 77 (peptide)
peptide: FFXADVFYGWYLCG
HELM: PEPTIDE1{[O=C(C[*:3])[*:2]].F.[meF].[CCCC[C@@H](C(=O)[*:2])N(C)[*:1]].[meA].D.V.[meF].Y.[Sar].W.Y.L.C.G.[am]}$PEPTIDE1,PEPTIDE1,1:R3-14:R3$$$V2.0
SMILES: CCCC[C@H]1C(=O)N(C)[C@@H](C)C(=O)N[C@@H](CC(=O)O)C(=O)N[C@@H](C(C)C)C(=O)N(C)[C@@H](Cc2ccccc2)C(=O)N[C@@H](Cc2ccc(O)cc2)C(=O)N(C)CC(=O)N[C@@H](Cc2c[nH]c3ccccc23)C(=O)N[C@@H](Cc2ccc(O)cc2)C(=O)N[C@@H](CC(C)C)C(=O)N[C@H](C(=O)NCC(N)=O)CSCC(=O)N[C@@H](Cc2ccccc2)C(=O)N(C)[C@@H](Cc2ccccc2)C(=O)N1C
notes: macrocyclic peptide cyclized via the ClAc moiety with the downstream cysteine; variant of Compound No. 71 (mAla at 4)
In the case of B5, the IC50 [2] is reported as 24 nM.
